± gives the uncertainty stated by the source.
B1: library; numbered along this chain (parent)
chain: MEVVDPQQLGMFTEGELMSVGMDTFIHRIDSTEVIYQPRRKRAKLIGKYLMGDLLGEGSYGKVKEVLDSETLCRRAVKILKKKKLRRIPNGEANVKKEIQLLRRLRHKNVIQLVDVLYNEEKQKMYMVMEYCVCGMQEMLDSVPEKRFPVCQAHGYFCQLIDGLEYLHSQGIVHKDIKPGNLLLTTGGTLKISDLGVAEALHPFAADDTCRTSQGSPAFQPPEIANGLDTFSGFKVDIWSAGVTLYNITTGLYPFEGDNIYKLFENIGKGSYAIPGDCGPPLSDLLKGMLEYEPAKRFSIRQIRQHSWFRKKHPPAEAPVPIPPSPDTKDRWRSMTVVPYLEDLHGADEDEDLFDIEDDIIYTQDFTVPGQVPEEEASHNGQRRGLPKAVCMNGTEAAQLSTKSRAEGRAPNPARKACSASSKIRRLSACKQQ

Variants of: B1
Assay: STK11 functional score (HeLa growth suppression), rescaled enrichment; synonymous median = 1, nonsense median = 0 (normalised score)
Conditions: with HeLa; variant type: missense
Outline: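 The functional score takes the post/pre-selection log ratio, corrects it to wild type, rescales it to synonymous and nonsense medians, and merges it over codons and replicate transfections, with error from bootstrapping. Counts came from tiled gDNA amplicons sequenced on NextSeq (~2 million reads per tile). The libraries were POPCode codon-randomised, codon-optimised STK11 integrated by Bxb1 at an AAVS1 landing pad in HeLa, three regions with three transfections each.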

STK11 functional score: each site, then its substitutions
L228: F 1.34 ± 0.43, M 0.601 ± 0.32, Y 1.25 ± 0.54
F231: D 1.56 ± 0.39, G 1.17 ± 0.26, A 1.61 ± 0.26, V 0.867 ± 0.094, M -0.0118 ± 0.18, I 1.62 ± 0.17, H 0.765 ± 0.42, L 0.842 ± 0.35, P 0.959 ± 0.34, E 1.24 ± 0.3, R 1.26 ± 0.52, W 0.409 ± 0.37, C 1.33 ± 0.24, T 1.64 ± 0.39, S 0.515 ± 0.38, N 1.69 ± 0.13, Y 0.865 ± 0.35
G215: I 0.938 ± 0.11, L 1.04 ± 0.15, C 1.06 ± 0.2, W 0.29 ± 0.091, Y 1.08 ± 0.31, H 0.951 ± 0.64, S 1.11 ± 0.18, N 1.43 ± 0.19, M 0.509 ± 0.12, R 0.426 ± 0.24, D 0.255 ± 0.12, V 0.788 ± 0.16, Q 0.0889 ± 0.12, T 1.19 ± 0.51, A 1.15 ± 0.2
S232: W 0.692 ± 0.097, R 1.39 ± 0.17, C 1.17 ± 0.22, N 1.28 ± 0.44, V 0.841 ± 0.24, I 1.4 ± 0.18, H 1.3 ± 0.14, P 0.971 ± 0.44, D 1.14 ± 0.3, K 1.67 ± 0.14, G 0.97 ± 0.2, L 0.996 ± 0.2, Q 1.03 ± 0.58, E 1.36 ± 0.33, M 0.515 ± 0.49, Y 0.917 ± 0.16, A 1.04 ± 0.22
E223: W 0.142 ± 0.1, L 0.529 ± 0.18, D 0.948 ± 0.23, C 1.03 ± 0.53, G 0.169 ± 0.077, Q 0.735 ± 0.22, V 0.469 ± 0.15, R 0.921 ± 0.41, Y 1 ± 0.71, H 1.18 ± 0.17, K 0.308 ± 0.41, S 0.551 ± 0.1, T 0.188 ± 0.086, I 0.17 ± 0.24
F234: W 1.44 ± 0.21, C 1.05 ± 0.39, I 1.67 ± 0.4, E 1.59 ± 0.46, L 0.75 ± 0.11, R 1.5 ± 0.19, S 1.1 ± 0.2, V 1.2 ± 0.36, A 1.35 ± 0.39, D 1.18 ± 0.1, Y 0.805 ± 0.64, G 1.33 ± 0.41
P217: F 1.45 ± 0.12, V 0.177 ± 0.36, H 0.332 ± 0.43, S 0.334 ± 0.13, E 0.536 ± 0.41, R 0.3 ± 0.39

Reference: the supplement of paper PMC12338614
